Measured values taken from the supplement of paper PMC10567573.

B1: INTS3 (parent)
chain: YPPLEGHVRQGVFSSLNHIVEKRV

Variants of: B1
Test: protein stability index of a GFP-peptide fusion (GPS, HEK-293T) (PSI 1-6); higher = more stable
Conditions: c terminus: a fixed tail appended
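Note: lentivirally expressed fusions sorted by FACS into six bins by GFP to DsRed ratio, PSI derived from sequencing read proportions per bin multiplied by bin number.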

| Variant | protein stability index |
| --- | --- |
| YPPLEGHVRQGVFSSLNHYVEKRV [I19Y] | 2.07 |
| YPPLEGHVRQGVFSSLNHKVEKRV [I19K] | 2.37 |
| YPPLEGHVRQGVFSSLNHLVEKRV [I19L] | 1.83 |
| YPPLEGHVRQGVFSSLNHDVEKRV [I19D] | 3.11 |
| YPPLEGHVRQGVFSSLNHMVEKRV [I19M] | 3.33 |
| YPPLEGHVRQGVFSSLNHFVEKRV [I19F] | 2.31 |
| YAPLEGHVRQGVFSSLNHIVEKRV [P2A] | 2.18 |
| YDPLEGHVRQGVFSSLNHIVEKRV [P2D] | 3.36 |
| YLPLEGHVRQGVFSSLNHIVEKRV [P2L] | 2.7 |
| YTPLEGHVRQGVFSSLNHIVEKRV [P2T] | 1.6 |
| YVPLEGHVRQGVFSSLNHIVEKRV [P2V] | 1.36 |
| YPPLEGHVRQGVSSSLNHIVEKRV [F13S] | 3.65 |
| YPPLEGHVRQGVISSLNHIVEKRV [F13I] | 3.6 |
| YPPLEGHVRQGVYSSLNHIVEKRV [F13Y] | 2.84 |
| YPPLEGHVRQGVRSSLNHIVEKRV [F13R] | 3.32 |
| YPPLEGHVRQGVFRSLNHIVEKRV [S14R] | 3.27 |
| YPPLEGHVRQGVFESLNHIVEKRV [S14E] | 2.73 |
| YPPLEGHVRQGVFLSLNHIVEKRV [S14L] | 1.73 |
| YPPLEGHVRQGVFGSLNHIVEKRV [S14G] | 2.61 |
| YPPLEGHVRQGVFFSLNHIVEKRV [S14F] | 1.79 |
| YPPLEGHVRQGDFSSLNHIVEKRV [V12D] | 3.44 |
| YPPLEGHVRQGIFSSLNHIVEKRV [V12I] | 2.37 |
| YPPLEGHVRQGGFSSLNHIVEKRV [V12G] | 2.54 |
| YPPLEGHVRQGVFSSLNHIWEKRV [V20W] | 2.02 |

| Variant | protein stability index |
| --- | --- |
| YPPLEGHVRQGVFSSLNHIHEKRV [V20H] | 2.36 |
| YPPLEGHVRQGVFSSLNHIGEKRV [V20G] | 1.76 |
| YPPLEGHVRQGVFSSLNHIEEKRV [V20E] | 3.08 |
| YPPLEGHVRQGVFSSLNHIFEKRV [V20F] | 2.78 |
| YPPLEGHVRQGVFSSINHIVEKRV [L16I] | 2.31 |
| YPPLEGHVRQGVFSSDNHIVEKRV [L16D] | 4.2 |
| YPPLEGHVRQGVFSSSNHIVEKRV [L16S] | 2.49 |
| YPPLEGHVRQGVFSSCNHIVEKRV [L16C] | 2.24 |
| YPPREGHVRQGVFSSLNHIVEKRV [L4R] | 2.32 |
| YPPIEGHVRQGVFSSLNHIVEKRV [L4I] | 2.74 |
| YPPGEGHVRQGVFSSLNHIVEKRV [L4G] | 1.35 |
| YPPQEGHVRQGVFSSLNHIVEKRV [L4Q] | 2.74 |
| YPPLEGQVRQGVFSSLNHIVEKRV [H7Q] | 2.36 |
| YPPLEGIVRQGVFSSLNHIVEKRV [H7I] | 2.21 |
| YPPLEGHVRQGVFSSLNHIVEKNV [R23N] | 2.6 |
| YPPLEGHVRQGVFSSLNHIVEKMV [R23M] | 1.7 |
| YPALEGHVRQGVFSSLNHIVEKRV [P3A] | 2.43 |
| YPDLEGHVRQGVFSSLNHIVEKRV [P3D] | 3.11 |
| YPPLEGHVRQGVFSSLNHIVEARV [K22A] | 2.29 |
| YPPLEGHVRQGVFSSLNHIVEERV [K22E] | 2.63 |
| YPPLEGHVRQGVFSSLNHIVEQRV [K22Q] | 2.23 |
| YPPLEGHVRQGVFSSLNHIVEWRV [K22W] | 2.14 |
| YPPLEYHVRQGVFSSLNHIVEKRV [G6Y] | 2.38 |
| YPPLEDHVRQGVFSSLNHIVEKRV [G6D] | 2.81 |

| Variant | protein stability index |
| --- | --- |
| YPPLEGHVRQGVFSSLNIIVEKRV [H18I] | 1.99 |
| YPPLEGHVRQGVFSSLNPIVEKRV [H18P] | 3.04 |
| YPPLEGHVRQGVFSSLNLIVEKRV [H18L] | 1.77 |
| YPPLEGHVRQGVFSSLNHIVWKRV [E21W] | 1.95 |
| YPPLEGHVRQGVFSSLNHIVPKRV [E21P] | 2.26 |
| YPPLEGHVRQGVFSSLNHIVLKRV [E21L] | 2.29 |
| YPPLEGHVRQGVFSSLNHIVDKRV [E21D] | 3.35 |
| YPPLEGHVRQGVFSSLTHIVEKRV [N17T] | 2.04 |
| YPPLEGHVRQGVFSSLQHIVEKRV [N17Q] | 2.34 |
| YPPLEGHVRQGVFSSLFHIVEKRV [N17F] | 1.78 |
| YPPLEGHVRQGVFSSLVHIVEKRV [N17V] | 1.99 |
| YPPLEGHVRQGVFSSLSHIVEKRV [N17S] | 2.29 |
| YPPLEGHVRQGVFSSLYHIVEKRV [N17Y] | 1.71 |
| YPPLEGHVRQGVFSSLMHIVEKRV [N17M] | 1.64 |
| YPPLEGHVRQGVFSSLHHIVEKRV [N17H] | 2.21 |
| YPPLEGHVRQGVFSSLAHIVEKRV [N17A] | 2.48 |
| YPPLEGHVRQEVFSSLNHIVEKRV [G11E] | 2.88 |
| YPPLEGHVRQCVFSSLNHIVEKRV [G11C] | 1.48 |
| YPPLEGHVRQQVFSSLNHIVEKRV [G11Q] | 2.35 |
| YPPLEGHVRQTVFSSLNHIVEKRV [G11T] | 2.27 |
| YPPLEGHVRQFVFSSLNHIVEKRV [G11F] | 1.8 |
| YPPLEGHVRQNVFSSLNHIVEKRV [G11N] | 2.29 |
| YPPLEGHVRQKVFSSLNHIVEKRV [G11K] | 2.93 |
| YPPLEGHERQGVFSSLNHIVEKRV [V8E] | 3.53 |

| Variant | protein stability index |
| --- | --- |
| YPPLEGHLRQGVFSSLNHIVEKRV [V8L] | 2.13 |
| YPPLEGHARQGVFSSLNHIVEKRV [V8A] | 2.46 |
| YPPLEGHNRQGVFSSLNHIVEKRV [V8N] | 2.55 |
| YPPLEGHKRQGVFSSLNHIVEKRV [V8K] | 2.84 |
| YPPLEGHVRHGVFSSLNHIVEKRV [Q10H] | 2.69 |
| YPPLEGHVRYGVFSSLNHIVEKRV [Q10Y] | 1.99 |
| APPLEGHVRQGVFSSLNHIVEKRV [Y1A] | 4.01 |
| NPPLEGHVRQGVFSSLNHIVEKRV [Y1N] | 4.12 |
| MPPLEGHVRQGVFSSLNHIVEKRV [Y1M] | 3.59 |
| YPPLEGHVRQGVFSSLNHIVEKRH [V24H] | 2.29 |
| YPPLEGHVRQGVFSSLNHIVEKRD [V24D] | 3.16 |
| YPPLEGHVRQGVFSSLNHIVEKRF [V24F] | 1.99 |
| YPPLEGHVRQGVFSSLNHIVEKRS [V24S] | 2.58 |
| YPPLEGHVRQGVFSSLNHIVEKRA [V24A] | 3.31 |
| YPPLEGHVRQGVFSFLNHIVEKRV [S15F] | 2.32 |
| YPPLEGHVRQGVFSMLNHIVEKRV [S15M] | 2.43 |
| YPPLEGHVRQGVFSNLNHIVEKRV [S15N] | 2.4 |
| YPPLEGHVRQGVFSQLNHIVEKRV [S15Q] | 2.28 |
| YPPLEGHVRQGVFSALNHIVEKRV [S15A] | 2.23 |
| YPPLEGHVHQGVFSSLNHIVEKRV [R9H] | 2.96 |
| YPPLEGHVQQGVFSSLNHIVEKRV [R9Q] | 3.28 |
| YPPLEGHVIQGVFSSLNHIVEKRV [R9I] | 1.38 |
